For 14 variants, sfGFP reporter fluorescence results are on record in the supplement of paper PMC12783771.

± gives the standard deviation of the averaged measurements.

B1: library; numbered along this chain (parent)
chain: MNIQIGELAKRTACPVVTIRFYEQEGLLPPPGRSRGNFRLYGEEHVERLQFIRHCRSLDMPLSDVRTLLSYRKRPDQDCGEVNMLLDEHIRQVESRIGALLELKHHLVELREACSGARPAQSCGILQGLSDCVCDTRGTTAHPSD

In data set [1] the parent is B1. Description: sfGFP reporter fluorescence (15 h) (µM FITC); higher = higher leak. The note with it: library round: Round 0; ligand: none. Summed up: (§1)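 Values are endpoint sfGFP fluorescence given as µM FITC equivalents. Fluorescence was read at 485/528 nm on a Synergy Neo2, and FITC standard curves were prepared in 50 mM sodium borate pH 8.5. Reactions of 1 μL combined BL21 Star (DE3) PANOx-SP extract, pPbrR-sfGFP reporter, 30 μg/mL GamS and linear PbrR templates (PCR-made, Echo-normalized to 5 nM), with 1 µM lead chloride, 30 µM zinc acetate or no metal, for 15 hr at 30 °C.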

Data set [2] covers variants of B1. The data set is described as follows: sfGFP reporter fluorescence (15 h) (µM FITC); higher = stronger transcriptional activation. The note with it: library round: Round 0. Summed up: as §1

In the case of MNIQIGELAKRTACPVVTIRFYEQEGLLPPPGRSRGNFRLYGEEHVERLQFIRHCRSLDMPLSTVRTLLSYRKRPDQDCGEVNMLLDEHIRQVESRIGALLELKHHLVELREACSGARPAQSCGILQGLSDCVCDTRGTTAHPSD [D64T], the sfGFP reporter fluorescence in data set [1] stood at 0.217 ± 0.0054; in data set [2] (ligand: 1 µM Pb), 0.331 ± 0.051; in data set [2] (ligand: 30 µM Zn), 2.74 ± 0.3.

With MNIQIGELAKRTACPVVTIRFYEQEGLLPPPGRSRGNFRLYGEEHVERLQFIRHCRSLDMPLSSVRTLLSYRKRPDQDCGEVNMLLDEHIRQVESRIGALLELKHHLVELREACSGARPAQSCGILQGLSDCVCDTRGTTAHPSD [D64S], the values for the sfGFP reporter fluorescence in data set [1], in data set [2] (ligand: 1 µM Pb) and in data set [2] (ligand: 30 µM Zn) were 0.0944 ± 0.0013, 0.22 ± 0.013 and 3.02 ± 0.097, respectively.

With MNIQIGELAKRTACPVVTIRFYEQEGLLPPPGRSRGNFRLYGEEHVERLQFIRHCRSLDMPLSRVRTLLSYRKRPDQDCGEVNMLLDEHIRQVESRIGALLELKHHLVELREACSGARPAQSCGILQGLSDCVCDTRGTTAHPSD [D64R], the sfGFP reporter fluorescence in data set [1] worked out at 0.064 ± 0.0039; in data set [2] (ligand: 1 µM Pb) it was 0.112 ± 0.0049; in data set [2] (ligand: 30 µM Zn) it was 1.4 ± 0.036.

As for MNIQIGELAKRTACPVVTIRFYEQEGLLPPPGRSRGNFRLYGEEHVERLQFIRHCRSLDMPLSVVRTLLSYRKRPDQDCGEVNMLLDEHIRQVESRIGALLELKHHLVELREACSGARPAQSCGILQGLSDCVCDTRGTTAHPSD [D64V], the sfGFP reporter fluorescence stood at 0.177 ± 0.0098 in data set [1], 0.5072 ± 0.0036 in data set [2] (ligand: 1 µM Pb) and 3.52 ± 0.1 in data set [2] (ligand: 30 µM Zn).

Take MNIQIGELAKRTACPVVTIRFYEQEGLLPPPGRSRGNFRLYGEEHVERLQFIRHCRSLDMPLSYVRTLLSYRKRPDQDCGEVNMLLDEHIRQVESRIGALLELKHHLVELREACSGARPAQSCGILQGLSDCVCDTRGTTAHPSD [D64Y]: the sfGFP reporter fluorescence turned out to be 0.61 ± 0.017 in data set [1], 1.75 ± 0.51 in data set [2] (ligand: 1 µM Pb) and 3.81 ± 0.17 in data set [2] (ligand: 30 µM Zn).

As to MNIQIGELAKRTACPVVTIRFYEQEGLLPPPGRSRGNFRLYGEEHVERLQFIRHCRSLDMPLSNVRTLLSYRKRPDQDCGEVNMLLDEHIRQVESRIGALLELKHHLVELREACSGARPAQSCGILQGLSDCVCDTRGTTAHPSD [D64N], the sfGFP reporter fluorescence in data set [1] was found to be 0.06652 ± 0.00026; in data set [2] (ligand: 1 µM Pb), 0.137 ± 0.006; in data set [2] (ligand: 30 µM Zn), 1.64 ± 0.084.

With MNIQIGELAKRTACPVVTIRFYEQEGLLPPPGRSRGNFRLYGEEHVERLQFIRHCRSLDMPLSWVRTLLSYRKRPDQDCGEVNMLLDEHIRQVESRIGALLELKHHLVELREACSGARPAQSCGILQGLSDCVCDTRGTTAHPSD [D64W], the sfGFP reporter fluorescence worked out at 0.0815 ± 0.0029 in data set [1], 0.167 ± 0.0052 in data set [2] (ligand: 1 µM Pb) and 1.64 ± 0.044 in data set [2] (ligand: 30 µM Zn).

With MNIQIGELAKRTACPVVTIRFYEQEGLLPPPGRSRGNFRLYGEEHVERLQFIRHCRSLDMPLSQVRTLLSYRKRPDQDCGEVNMLLDEHIRQVESRIGALLELKHHLVELREACSGARPAQSCGILQGLSDCVCDTRGTTAHPSD [D64Q], the values for the sfGFP reporter fluorescence in data set [1], in data set [2] (ligand: 1 µM Pb) and in data set [2] (ligand: 30 µM Zn) were 0.0579 ± 0.001, 0.0808 ± 0.0029 and 0.781 ± 0.044, respectively.

MNIQIGELAKRTACPVVTIRFYEQEGLLPPPGRSRGNFRLYGEEHVERLQFIRHCRSLDMPLSPVRTLLSYRKRPDQDCGEVNMLLDEHIRQVESRIGALLELKHHLVELREACSGARPAQSCGILQGLSDCVCDTRGTTAHPSD [D64P]: the sfGFP reporter fluorescence in data set [1] worked out at 0.0607 ± 0.00078; in data set [2] (ligand: 1 µM Pb), 0.076 ± 0.00078; in data set [2] (ligand: 30 µM Zn), 0.162 ± 0.0067.

Take MNIQIGELAKRTACPVVTIRFYEQEGLLPPPGRSRGNFRLYGEEHVERLQFIRHCRSLDMPLSDVRTALSYRKRPDQDCGEVNMLLDEHIRQVESRIGALLELKHHLVELREACSGARPAQSCGILQGLSDCVCDTRGTTAHPSD [L68A]: the sfGFP reporter fluorescence in data set [1] is 0.0623 ± 0.001; in data set [2] (ligand: 1 µM Pb), 0.0619 ± 0.0047; in data set [2] (ligand: 30 µM Zn) it was 0.156 ± 0.0049.

Regarding MNIQIGELAKRTACPVVTIRFYEQEGLLPPPGRSRGNFRLYGEEHVERLQFIRHCRSLDMPLSDVRTCLSYRKRPDQDCGEVNMLLDEHIRQVESRIGALLELKHHLVELREACSGARPAQSCGILQGLSDCVCDTRGTTAHPSD [L68C], the values for the sfGFP reporter fluorescence in data set [1], in data set [2] (ligand: 1 µM Pb) and in data set [2] (ligand: 30 µM Zn) were 0.0678 ± 0.0031, 0.0874 ± 0.0044 and 0.504 ± 0.017, respectively.

For the variant MNIQIGELAKRTACPVVTIRFYEQEGLLPPPGRSRGNFRLYGEEHVERLQFIRHCRSLDMPLSDARTLLSYRKRPDQDCGEVNMLLDEHIRQVESRIGALLELKHHLVELREACSGARPAQSCGILQGLSDCVCDTRGTTAHPSD [V65A], the sfGFP reporter fluorescence in data set [1] came to 0.0629 ± 0.0013; in data set [2] (ligand: 1 µM Pb) it was 0.0678 ± 0.0052; in data set [2] (ligand: 30 µM Zn), 0.153 ± 0.036.

Regarding MNIQIGELAKRTACPVVTIRFYEQEGLLPPPGRSRGNFRLYGEEHVERLQFIRHCRSLDMPLSDVRALLSYRKRPDQDCGEVNMLLDEHIRQVESRIGALLELKHHLVELREACSGARPAQSCGILQGLSDCVCDTRGTTAHPSD [T67A], the results for the sfGFP reporter fluorescence in data set [1], in data set [2] (ligand: 1 µM Pb) and in data set [2] (ligand: 30 µM Zn) were 0.06047 ± 0.00052, 0.0709 ± 0.0018 and 0.381 ± 0.063, respectively.

For MNIQIGELAKRTACPVVTIRFYEQEGLLPPPGRSRGNFRLYGEEHVERLQFIRHCRSLDMPLSDVATLLSYRKRPDQDCGEVNMLLDEHIRQVESRIGALLELKHHLVELREACSGARPAQSCGILQGLSDCVCDTRGTTAHPSD [R66A], the figures for the sfGFP reporter fluorescence in data set [1], in data set [2] (ligand: 1 µM Pb) and in data set [2] (ligand: 30 µM Zn) were 0.0627 ± 0.0015, 0.0751 ± 0.0047 and 0.616 ± 0.13, respectively.
